Reference: patent publication US20150133308A1 (KOREA ADVANCED INSTITUTE OF SCIENCE AND TECHNOLOGY, published 2015)

Target: T1, human interleukin-6 (human, UniProt P05231 30-212)
T1 construct: also called hIL-6; IL-6
Assay: phage ELISA, 96-well plate coated with IL-6 and BSA

Row | Binder | OD450 on IL-6 relative to BSA [fold]
1 | r-B10 (designed binder, on phage in the ELISA) ETITVSTPIKQIFPDDAFAETIKANLKKKSVTDAVTQNELNSIDQIIANNSDIKSVQGIQYLPNVRYLALGGNKLHDISALKELTNLTYLVLDPNQLQSLPNGVFDKLTNLKELSLWTNQLQSLPDGVFDKLTNLTYLNLAHNQLQSLPKGVFDKLTNLTELDLSYNQLQSLPEGVFDKLTQLKDLRLYQNQLKSVPDGVFDRLTSLQYIWLHDNPWDCTCPGIRYLSEWINKHSGVVRNSAGSVAPDSAKCSGSGKPVRSIICPT | ≥ 10
2 | r-F7 (designed binder, on phage in the ELISA) ETITVSTPIKQIFPDDAFAETIKANLKKKSVTDAVTQNELNSIDQIIANNSDIKSVQGIQYLPNVRYLALGGNKLHDISALKELTNLTYLVLDPNQLQSLPNGVFDKLTNLKELSLWTNQLQSLPDGVFDKLTNLTYLNLAHNQLQSLPKGVFDKLTNLTELDLSYNQLQSLPEGVFDKLTQLKDLRLYQNQLKSVPDGVFDRLTSLQYIWLHDNPWDCTCPGIRYLSEWINKHSGVVRNSAGSVAPDSAKCSGSGKPVRSIICPT | ≥ 10
